Test [1] concerns the target C-terminal truncation mutant of tetradecamer GroEL, Δ526 (E. coli) (UniProt P0A6F5).
The target is the same in test [2]. Put plainly: cryo-EM structure; acid-urea denatured PepQ (7 μM final) titrated into GroEL or Δ526 (8 μM tetradecamers) in TKM buffer, no nucleotide, room temperature 5 min; asymmetric 3D classification and refinement.
Test [3] deals with PepQ-24TMR (E. coli) (UniProt P21165). The test is described as follows: single-molecule two-colour co-incidence detection; PepQ-24OG and PepQ-24TMR 1:1, denatured, refolded at 100 nM total monomer with GroEL, GroES and ATP at 23 °C, then diluted 1,000-fold to 100 pM; cross-correlation of fluorescence bursts.
Test [4] shares this target. The test is described as follows: single-molecule two-colour co-incidence detection; PepQ-24OG and PepQ-24TMR 1:1, denatured in acid-urea, spontaneous folding at 2 nM monomer in TKM buffer with 0.1 mg ml^-1 BSA, 23 °C, 10 min, then diluted 20-fold to 100 pM.

A value given as a limit tells only on which side of the number the result lay.

As for “wild type E. coli PepQ (from UniProt P21165 1-443) (enzyme)”, in test [1], the observed folding rate constant of PepQ by recovery of enzymatic activity, bound to Δ526 (200 nM) and refolded with GroES (400 nM) and ATP (2 mM) was 0.106 min⁻¹.

Take “C-terminal truncation mutant of tetradecamer GroEL, Δ526 (from UniProt P0A6F5 2-526) (domain or fragment)”: the stoichiometry N in test [2] was found to be 14.

As to “PepQ-24OG (from UniProt P21165 1-443) (enzyme)”, the coincident fraction with PepQ-24TMR (E. coli) [3] came out at 10%. In the test with PepQ-24TMR (E. coli) [4], this substance came in with a co-incidence of under 1% and a co-incidence (most likely overlap) of 0.75%.

As a reminder, the stoichiometry N is the number of molecules, sites or subunits per partner or assembly.

The values above are taken from publication PMC5497066.
